The record followed here is patent US20240279318A1 (NANJING LEGEND BIOTECH, published 2024).

The Kd is the free concentration of one partner at which half of the binding sites on the other are occupied at equilibrium, for simple one-to-one binding. Usually koff stands for the rate constant with which the complex falls apart. Low values mean a long-lived complex, high ones a short-lived complex. A word on the kon: it is the rate constant with which the complex forms. Low values mean slow association, high ones fast association.

B1: AS170036 VL1VH1-56N108D (scFv)
scFv: QSALTQPRSVSGSPGQSVTISCAGTSSDVGSENYVSWYQQHPGKAPKLMIYQVNKRASGVPDRFSGSKSGNTASLTISGLQAEDEADYYCASYRSSDHNIVFGGGTKLTVLGGGGSGGGGSGGGGSEVQLVESGGGLVQPGGSLRLSCAASGFTFSSYAMSWVRQAPGKGLEWVSTINSGTNSPYYADSVKGRFTISRDNSKNTLYLQMNSLRAEDTAVYYCAKNFFDGSWFLDPPAMDYWGQGTLVTVSSHHHHHH
notes: also called 20-AS170036 VL1VH1-56N108D
B2: AS170036 VL1VH1-57H108D (scFv)
scFv: B1 scFv with N182G, S183H
notes: also called 23-AS170036 VL1VH1-57H108D
B3: AS170036 VL1VH1-57H98F (scFv)
scFv: B1 scFv with H98F, N182G, S183H, D234G
notes: also called 07-AS170036 VL1VH1-57H98F
B4: AS170036 VL1VH1-57H98I (scFv)
scFv: B1 scFv with H98I, N182G, S183H, D234G
notes: also called 08-AS170036 VL1VH1-57H98I
B5: AS170036 VL1VH1-56Y98Q (scFv)
scFv: B1 scFv with H98Q, N182Y, D234G
notes: also called 03-AS170036 VL1VH1-56Y98Q
B6: AS170036 VL1VH1-56Y98F (scFv)
scFv: B1 scFv with H98F, N182Y, D234G
notes: also called 01-AS170036 VL1VH1-56Y98F
B7: AS170036 VL1VH1-56Y108D (scFv)
scFv: B1 scFv with N182Y
notes: also called 17-AS170036 VL1VH1-56Y108D
B8: AS170036 VL1VH1-56Y108A (scFv)
scFv: B1 scFv with N182Y, D234A
notes: also called 16-AS170036 VL1VH1-56Y108A
B9: AS170036 VL1VH1-57H98Q (scFv)
scFv: B1 scFv with H98Q, N182G, S183H, D234G
notes: also called 09-AS170036 VL1VH1-57H98Q
B10: AS170036 VL1VH1-56Y108S (scFv)
scFv: B1 scFv with N182Y, D234S
notes: also called 18-AS170036 VL1VH1-56Y108S
B11: AS170036 VL1VH1-57H108A (scFv)
scFv: B1 scFv with N182G, S183H, D234A
notes: also called 22-AS170036 VL1VH1-57H108A
B12: AS170036 VL1VH1-56N108S (scFv)
scFv: B1 scFv with D234S
notes: also called 21-AS170036 VL1VH1-56N108S
B13: AS170036 VL1VH1-56Y98I (scFv)
scFv: B1 scFv with H98I, N182Y, D234G
notes: also called 02-AS170036 VL1VH1-56Y98I

Where a chain is given by its changes, count along the chain named.

One assay has as its target T1, AFP158/HLA-A*02:01 complex (human).
T1 construct: flowed as analyte in SPR
The assay can be described thus: SPR, fold vs AS170036 VL1VH1.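 Further: crude scFv muteins immobilised on a sensor chip, peptide–MHC complex passed over at several concentrations, binding then buffer-driven dissociation, KD estimated from on- and off-rates.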 A general note: SPR reads the build-up and loss of mass on a sensor chip optically.
Method: (§1) The experiment was carried out as follows. The crude scFv protein were captured onto the sensorchip. Different concentrations (320, 160, 40 nM) of AFP158/HLA-A*02:01 complex flowed over the sensorchip surface, and were allowed to bind the antibody fragment for 100 s followed by injection of the running buffer to allow dissociation of the complex. On-rate (kd) and off-rate (kd) were calculated based on association and dissociation curve, and were used to estimate the equilibrium dissociation constant (KD).
(§2) The crude scFv muteins were then subjected to SPR affinity measurement by the method mentioned above.
As for B1, the Affinity increase stood at 13.2 fold.
On the same count and under the same terms, for B2 the value was 23.5 fold; for B3, 30.2 fold; for B4, 12.6 fold.
Same read-out and setting: with B5 the figure was 25.8 fold.
The same measure, in the same setting: with B6 the figure was 21 fold; with B7, 37.3 fold.
In turn, B8 returned an Affinity increase of 48.1 fold.
Same read-out and setting: for B9 the value was 24.8 fold.
Still for that read-out and setting: for B10 the value was 19.2 fold.
On the same count and under the same terms, with B11 the figure was 32.5 fold; with B12, 7 fold.
The molecule B13 displayed an Affinity increase of 33.5 fold.

A further assay has as its target T1, AFP158/HLA-A*02:01 complex. The experiment in a line: SPR, crude scFv captured, pMHC analyte.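 Further: pMHC analyte injected at three concentrations, association phase of one hundred seconds, then running buffer for dissociation, rates fitted from both curves, KD derived from the rates.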
Method: as §1, §2
As to B1, the Kd was 17 nM, the koff turned out to be 0.0046 s⁻¹ and the kon worked out at 270000 M⁻¹ s⁻¹.
Taken in the same sequence, the figures for B2 were 9.6 nM, 0.002 s⁻¹ and 210000 M⁻¹ s⁻¹.
B3 came in with a Kd of 7.4 nM, a koff of 0.0018 s⁻¹ and a kon of 240000 M⁻¹ s⁻¹.
B4 gave a Kd of 18 nM, a koff of 0.0036 s⁻¹ and a kon of 200000 M⁻¹ s⁻¹.
B5: binding was characterised by a dissociation constant (Kd) of 8.7 nM, the dissociation rate constant (koff) turned out to be 0.0016 s⁻¹ and the kon was 190000 M⁻¹ s⁻¹.
As to B6, the Kd amounted to 11 nM, the koff worked out at 0.0023 s⁻¹ and the kon turned out to be 220000 M⁻¹ s⁻¹.
Molecule B7 returned a Kd of 6 nM, a koff of 0.0012 s⁻¹ and a kon of 200000 M⁻¹ s⁻¹.
Taken in the same sequence, the figures for B8 were 4.7 nM, 0.00093 s⁻¹ and 200000 M⁻¹ s⁻¹.
In the same order, the values of B9 are 9.1 nM, 0.0017 s⁻¹ and 190000 M⁻¹ s⁻¹.
Taken in the same sequence, the figures for B10 were 12 nM, 0.0017 s⁻¹ and 140000 M⁻¹ s⁻¹.
As to B11, binding was characterised by a dissociation constant (Kd) of 6.9 nM, the koff came to 0.0014 s⁻¹ and the kon stood at 210000 M⁻¹ s⁻¹.
Taken in the same sequence, the figures for B12 were 32 nM, 0.0067 s⁻¹ and 210000 M⁻¹ s⁻¹.
Taken in the same sequence, the figures for B13 were 6.7 nM, 0.0014 s⁻¹ and 210000 M⁻¹ s⁻¹.
